T1: EC1-2 domain of VE-cadherin
T1 sequence (P33151 whole entry, species assumed, looked up): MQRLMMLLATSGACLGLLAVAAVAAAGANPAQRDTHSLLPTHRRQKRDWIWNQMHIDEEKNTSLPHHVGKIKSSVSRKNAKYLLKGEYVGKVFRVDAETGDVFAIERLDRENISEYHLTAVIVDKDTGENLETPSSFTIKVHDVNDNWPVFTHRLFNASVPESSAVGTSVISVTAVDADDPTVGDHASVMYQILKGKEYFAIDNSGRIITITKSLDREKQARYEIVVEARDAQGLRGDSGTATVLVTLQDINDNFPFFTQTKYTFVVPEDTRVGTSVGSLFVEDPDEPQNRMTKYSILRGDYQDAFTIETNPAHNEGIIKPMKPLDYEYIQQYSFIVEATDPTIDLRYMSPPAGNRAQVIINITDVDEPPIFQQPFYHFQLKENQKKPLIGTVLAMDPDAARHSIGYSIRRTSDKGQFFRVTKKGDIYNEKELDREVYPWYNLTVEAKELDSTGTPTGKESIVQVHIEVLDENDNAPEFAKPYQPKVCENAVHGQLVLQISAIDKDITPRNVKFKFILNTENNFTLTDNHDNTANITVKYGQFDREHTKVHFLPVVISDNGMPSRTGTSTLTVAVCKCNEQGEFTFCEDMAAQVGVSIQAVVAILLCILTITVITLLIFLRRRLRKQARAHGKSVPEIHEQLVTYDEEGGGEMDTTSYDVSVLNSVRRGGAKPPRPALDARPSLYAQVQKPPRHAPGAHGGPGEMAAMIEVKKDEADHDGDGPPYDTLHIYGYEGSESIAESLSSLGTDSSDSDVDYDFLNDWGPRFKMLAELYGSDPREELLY

B1: human H130R T2-TrpRS (domain or fragment, UniProt P23381 97-471, looked up)
chain: GIDYDKLIVRFGSSKIDKELINRIERATGQRPHRFLRRGIFFSHRDMNQVLDAYENKKPFYLYTGRGPSSEAMHVGHLIPFIFTKWLQDVFNVPLVIQMTDDEKYLWKDLTLDQAYSYAVENAKDIIACGFDINKTFIFSDLDYMGMSSGFYKNVVKIQKHVTFNQVKGIFGFTDSDCIGKISFPAIQAAPSFSNSFPQIFRDRTDIQCLIPCAIDQDPYFRMTRDVAPRIGYPKPALLHSTFFPALQGAQTKMSASDPNSSIFLTDTAKQIKTKVNKHAFSGGRDTIEEHRQFGGNCDVDVSFMYLTFFLEDDDKLEQIRKDYTSGAMLTGELKKALIEVLQPLIAEHQARRKEVTDEIVKEFMTPRKLSFDFQ
B2: wild-type human T2-TrpRS (domain or fragment)
chain: GIDYDKLIVRFGSSKIDKELINRIERATGQRPHHFLRRGIFFSHRDMNQVLDAYENKKPFYLYTGRGPSSEAMHVGHLIPFIFTKWLQDVFNVPLVIQMTDDEKYLWKDLTLDQAYSYAVENAKDIIACGFDINKTFIFSDLDYMGMSSGFYKNVVKIQKHVTFNQVKGIFGFTDSDCIGKISFPAIQAAPSFSNSFPQIFRDRTDIQCLIPCAIDQDPYFRMTRDVAPRIGYPKPALLHSTFFPALQGAQTKMSASDPNSSIFLTDTAKQIKTKVNKHAFSGGRDTIEEHRQFGGNCDVDVSFMYLTFFLEDDDKLEQIRKDYTSGAMLTGELKKALIEVLQPLIAEHQARRKEVTDEIVKEFMTPRKLSFDFQ

How the values were obtained:
[1] = target: the molecule itself; experiment: crystal structure
[2] = target: T1, EC1-2 domain of VE-cadherin; experiment: SPR

Binder	stoichiometry N [1]	fold stronger binding affinity than WT T2-TrpRS [2] [fold]	kon [2] [M⁻¹ s⁻¹]
B1	2	> 50	2.71e+07
B2			176000

Reference: paper PMC6103731 (RNA Biology, 2017)
